T1: HigA2 (Mycobacterium tuberculosis H37Rv, UniProt O53467 1-101)
T1 sequence: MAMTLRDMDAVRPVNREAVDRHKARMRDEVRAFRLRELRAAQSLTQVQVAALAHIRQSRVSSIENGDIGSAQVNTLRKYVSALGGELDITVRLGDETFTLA

B1: seq6 m4 (dsDNA)
DNA 1: CGCTGCTCTTACCCGGAGGAATATCACAGGTCCGTGATATCGCGTATCGCGCTACTCTG
DNA 2: CAGAGTAGCGCGATACGCGATATCACGGACCTGTGATATTCCTCCGGGTAAGAGCAGCG
B2: seq6 m6 (dsDNA)
DNA 1: CGCTGCTCTTACCCGGAGGAGCATCACCCTTGTGTGATCACGCGTATCGCGCTACTCTG
DNA 2: CAGAGTAGCGCGATACGCGTGATCACACAAGGGTGATGCTCCTCCGGGTAAGAGCAGCG
B3: seq6 m5 (dsDNA)
DNA 1: CTGCTCAAAGATCGACTAGTATATCACAGGTCCGTGATATGACGTATACCTTTGGTGCA
DNA 2: TGCACCAAAGGTATACGTCATATCACGGACCTGTGATATACTAGTCGATCTTTGAGCAG

The binders below were run against T1, HigA2 (assay: EMSA; EMSA: 20 mM Tris-HCl, 150 mM NaCl, pH 8.0, 37 °C, 5 min, HigA2 1 uM (titrated in Fig 4); agarose or native PAGE. Pull-down: streptavidin beads, 4 °C, PBS washes). Details: protein: recombinant; tags: C-terminal 6xHis; chain copies: 2.

Row | Binder | binding result
1 | B1 | binds
2 | B2 | binds
3 | B3 | binds
